Literature values as cited in PMC8329073.

Biological target: Thrombin (UniProt P00734+P00734)
Details: 20 mM Tris-HCl pH 7.5 (22 °C), 100 mM NaCl, 0.1 mM EDTA, 5 mM MgCl2 (20 mM MgCl2 for DNAzyme), room temperature; indirect read-out by strand-displacement …

Substance: thrombin DNA aptamer (parent, ref 67)
- Kd: 500 pM
